Legend:
Conditions in all cases: both partners purified
[1] = target: T1, Rabex5 (Bos taurus, UniProt O18973 1-492); experiment: HDX-MS; Rabex5/Rabaptin5 premixed with Rab5:GDP, ternary complex diluted into deuterated buffer without GTPγS, 1, 5 and 15 min, 22 °C
T1 construct: Rabex5, Bos taurus, 57 kDa Vps9 domain containing GEF for Rab5; The His tag served for capture in the co-purification and was then cut with 3C protease; also called Rabex5-6xHis

[2] = target: T2, Rabex5/Rabaptin5 complex (Bos taurus | human, UniProt O18973 1-492; Q15276 1-862); experiment: as above
T2 construct: Rabex5, Bos taurus, 57 kDa Vps9 domain containing GEF for Rab5; Rabaptin5, human, 99 kDa; also called GEF/effector complex; not shown: GST, N-terminal, cleaved; copies: 2 + 2
T2 sequence (O18973 whole entry, the tested form may be a part, one chain of several): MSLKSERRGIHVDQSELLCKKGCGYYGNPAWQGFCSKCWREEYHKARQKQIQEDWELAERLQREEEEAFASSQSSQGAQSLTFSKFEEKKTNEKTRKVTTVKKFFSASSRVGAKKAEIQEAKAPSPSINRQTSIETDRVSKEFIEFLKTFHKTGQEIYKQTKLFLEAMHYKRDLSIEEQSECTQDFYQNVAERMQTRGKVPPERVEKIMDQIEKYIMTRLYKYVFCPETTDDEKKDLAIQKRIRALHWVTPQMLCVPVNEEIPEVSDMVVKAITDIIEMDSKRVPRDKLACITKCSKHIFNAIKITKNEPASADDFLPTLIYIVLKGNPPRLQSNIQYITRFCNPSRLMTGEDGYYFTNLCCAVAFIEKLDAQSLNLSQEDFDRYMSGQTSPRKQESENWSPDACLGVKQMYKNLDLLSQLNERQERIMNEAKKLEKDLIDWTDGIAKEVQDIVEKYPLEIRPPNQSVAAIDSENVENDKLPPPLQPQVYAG

[3] = target: T3, Rabaptin5 (human, UniProt Q15276 1-862); experiment: HDX-MS; Rabex5/Rabaptin5 premixed with Rab5:GDP, ternary complex diluted into deuterated buffer with GTPγS, 1, 5 and 15 min, 22 °C; uptake compared with the sample without GTPγS
T3 construct: Rabaptin5, human, 99 kDa; GST served for capture in the co-purification and was then cut from the resin with GST-3C protease; also called GST-Rabaptin5; not shown: GST, N-terminal, cleaved
T3 sequence (looked up): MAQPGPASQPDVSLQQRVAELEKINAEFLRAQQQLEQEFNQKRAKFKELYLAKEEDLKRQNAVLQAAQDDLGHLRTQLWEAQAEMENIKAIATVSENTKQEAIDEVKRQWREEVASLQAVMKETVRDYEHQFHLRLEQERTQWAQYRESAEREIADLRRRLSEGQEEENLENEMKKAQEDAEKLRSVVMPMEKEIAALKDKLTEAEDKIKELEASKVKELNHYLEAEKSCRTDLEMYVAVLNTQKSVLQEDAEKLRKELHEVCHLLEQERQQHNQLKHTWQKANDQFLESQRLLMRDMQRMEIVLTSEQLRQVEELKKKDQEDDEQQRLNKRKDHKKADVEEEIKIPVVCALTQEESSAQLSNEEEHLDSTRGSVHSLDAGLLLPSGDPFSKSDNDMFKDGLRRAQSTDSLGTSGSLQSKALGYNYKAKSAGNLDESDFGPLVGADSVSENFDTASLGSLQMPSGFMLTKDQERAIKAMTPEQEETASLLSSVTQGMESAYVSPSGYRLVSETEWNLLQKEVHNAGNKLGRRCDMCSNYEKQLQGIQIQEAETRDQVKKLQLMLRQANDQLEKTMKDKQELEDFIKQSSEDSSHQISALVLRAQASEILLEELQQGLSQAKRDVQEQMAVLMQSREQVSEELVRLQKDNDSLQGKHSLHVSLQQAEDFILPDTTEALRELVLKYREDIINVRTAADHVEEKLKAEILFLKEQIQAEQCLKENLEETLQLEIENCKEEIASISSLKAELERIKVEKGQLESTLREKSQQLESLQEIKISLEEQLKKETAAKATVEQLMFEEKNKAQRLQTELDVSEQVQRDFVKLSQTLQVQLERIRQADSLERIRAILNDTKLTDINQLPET

Measured: binding result

T1 sequence (O18973 whole entry, the tested form may be a part): as the sequence (O18973 whole entry, the tested form may be a part, one chain of several) above

B1: Rab5 (natural protein, human, UniProt P20339 1-215, looked up)
chain: MASRGATRPNGPNTGNKICQFKLVLLGESAVGKSSLVLRFVKGQFHEFQESTIGAAFLTQTVCLDDTTVKFEIWDTAGQERYHSLAPMYYRGAQAAIVVYDITNEESFARAKNWVKELQRQASPNIVIALSGNKADLANKRAVDFQEAQSYADDNSLLFMETSAKTSMNVNEIFMAIAKKLPKNEPQNPGANSARGRGVDLTEPTQPTRNQCCSN
notes: Rab5a, human; Rab5 as used in the HDX-MS experiment, printed there without GFP; also called Rab5a; Rab5:GDP; source: Sf9, purified (Ni-NTA, SEC)
binds: [1] | [2] | [3]
